Where a chain is given by its changes, count along the chain named. In names and notes the source's numbering stands.
B1: Fab VH5-51_IGHD5-18*01>3_IGHJ4*01 G100K/G104T G24T/S28R/G35V (H:KT TRV) & V3-4_IGLJ1*01 T78S (Fab, V domains shown)
VH: EVQLVQSGAEVKKPGESLKISCKTSGYRFTSYWIVWVRQMPGKGLEWMGIIYPGDSDTRYSPSFQGQVTISADKSISTAYLQWSSLKASDTAMYYCARRKYSYTYDYFDYWGQGTLVTVSS
VL: QTVVTQEPSFSVSPGGTVTLTCGLSSGSVSTSYYPSWYQQTPGQAPRTLIYSTNTRSSGVPDRFSGSILGNKAALTISGAQADDESDYYCVLYMGSGISYVFGTGTKVTVL
notes: Fab; expressed in E. coli with CH1 (Plasmid A, His6 and Flag tags) and lambda CL (Plasmid E); also called H:KT TRV & T78S
B2: Fab VH5-51_IGHD5-18*01>3_IGHJ4*01 G100K/G104T G24T/S28R/G35V (H:KT TRV) & V3-4_IGLJ1*01 V29A (Fab, V domains shown)
VH: B1 VH
VL: B1 VL with V29A, S78T
notes: Fab; expressed in E. coli with CH1 (Plasmid A, His6 and Flag tags) and lambda CL (Plasmid E); also called H:KT TRV & V29A
B3: Fab VH5-51_IGHD5-18*01>3_IGHJ4*01 G100K/G104T G24T/S28R/G35V (H:KT TRV) & V3-4_IGLJ1*01 V91T (Fab, V domains shown)
VH: B1 VH
VL: B1 VL with S78T, V91T
notes: Fab; expressed from plasmid A (CH1, His6 and Flag tags) and plasmid E (lambda CL)
B4: Fab VH5-51_IGHD5-18*01>3_IGHJ4*01 G100K/G104T G24T/S28R/G35V (H:KT TRV) & V3-4_IGLJ1*01 S36A (Fab, V domains shown)
VH: B1 VH
VL: B1 VL with S36A, S78T
notes: Fab; expressed in E. coli with CH1 (Plasmid A, His6 and Flag tags) and lambda CL (Plasmid E); also called H:KT TRV & S36A
B5: Fab VH5-51_IGHD5-18*01>3_IGHJ4*01 G100K/G104T G24T/S28R/G35V (H:KT TRV) & V3-4_IGLJ1*01 T78L (Fab, V domains shown)
VH: B1 VH
VL: B1 VL with S78L
notes: Fab; expressed in E. coli with CH1 (Plasmid A, His6 and Flag tags) and lambda CL (Plasmid E); also called H:KT TRV & T78L
B6: Fab VH5-51_IGHD5-18*01>3_IGHJ4*01 G100K/G104T G24T/S28R/G35V (H:KT TRV) & V3-4_IGLJ1*01 L24A (Fab, V domains shown)
VH: B1 VH
VL: B1 VL with L24A, S78T
notes: Fab; expressed in E. coli with CH1 (Plasmid A, His6 and Flag tags) and lambda CL (Plasmid E); also called H:KT TRV & L24A
B7: Fab VH5-51_IGHD5-18*01>3_IGHJ4*01 G100K/G104T G24T/S28R/G35V (H:KT TRV) & V3-4_IGLJ1*01 S30A (Fab, V domains shown)
VH: B1 VH
VL: B1 VL with S30A, S78T
notes: Fab; expressed in E. coli with CH1 (Plasmid A, His6 and Flag tags) and lambda CL (Plasmid E); also called H:KT TRV & S30A
B8: Fab VH5-51_IGHD5-18*01>3_IGHJ4*01 G100K/G104T G24T/S28R/G35V (H:KT TRV) & V3-4_IGLJ1*01 G27A (Fab, V domains shown)
VH: B1 VH
VL: B1 VL with G27A, S78T
notes: Fab; expressed in E. coli with CH1 (Plasmid A, His6 and Flag tags) and lambda CL (Plasmid E); also called H:KT TRV & G27A
B9: Fab VH5-51_IGHD5-18*01>3_IGHJ4*01 G100K/G104T G24T/S28R/G35V (H:KT TRV) & V3-4_IGLJ1*01 S99A (Fab, V domains shown)
VH: B1 VH
VL: B1 VL with S78T, S99A
notes: Fab; expressed in E. coli with CH1 (Plasmid A, His6 and Flag tags) and lambda CL (Plasmid E); also called H:KT TRV & S99A
B10: Fab VH5-51_IGHD5-18*01>3_IGHJ4*01 G100K/G104T G24T/S28R/G35V (H:KT TRV) & V3-4_IGLJ1*01 T78K (Fab, V domains shown)
VH: B1 VH
VL: B1 VL with S78K
notes: Fab; expressed in E. coli with CH1 (Plasmid A, His6 and Flag tags) and lambda CL (Plasmid E); also called H:KT TRV & T78K
B11: Fab VH5-51_IGHD5-18*01>3_IGHJ4*01 G100K/G104T G24T/S28R/G35V (H:KT TRV) & V3-4_IGLJ1*01 S28A (Fab, V domains shown)
VH: B1 VH
VL: B1 VL with S28A, S78T
notes: Fab; expressed in E. coli with CH1 (Plasmid A, His6 and Flag tags) and lambda CL (Plasmid E); also called H:KT TRV & S28A
B12: Fab VH5-51_IGHD5-18*01>3_IGHJ4*01 G100K/G104T G24T/S28R/G35V (H:KT TRV) & V3-4_IGLJ1*01 V91H (Fab, V domains shown)
VH: B1 VH
VL: B1 VL with S78T, V91H
notes: as for B3
B13: Fab VH5-51_IGHD5-18*01>3_IGHJ4*01 G100K/G104T G24T/S28R/G35V (H:KT TRV) & V3-4_IGLJ1*01 V91W (Fab, V domains shown)
VH: B1 VH
VL: B1 VL with S78T, V91W
notes: as for B3
B14: Fab VH5-51_IGHD5-18*01>3_IGHJ4*01 G100K/G104T G24T/S28R/G35V (H:KT TRV) & V3-4_IGLJ1*01 T31A (Fab, V domains shown)
VH: B1 VH
VL: B1 VL with T31A, S78T
notes: Fab; expressed in E. coli with CH1 (Plasmid A, His6 and Flag tags) and lambda CL (Plasmid E); also called H:KT TRV & T31A
B15: Fab VH5-51_IGHD5-18*01>3_IGHJ4*01 G100K/G104T G24T/S28R/G35V (H:KT TRV) & V3-4_IGLJ1*01 V91E (Fab, V domains shown)
VH: B1 VH
VL: B1 VL with S78T, V91E
notes: as for B3
B16: Fab VH5-51_IGHD5-18*01>3_IGHJ4*01 G100K/G104T G24T/S28R/G35V (H:KT TRV) & V3-4_IGLJ1*01 S96G (Fab, V domains shown)
VH: B1 VH
VL: B1 VL with S78T, S96G
notes: as for B3
B17: Fab VH5-51_IGHD5-18*01>3_IGHJ4*01 G100K/G104T G24T/S28R/G35V (H:KT TRV) & V3-4_IGLJ1*01 S25A (Fab, V domains shown)
VH: B1 VH
VL: B1 VL with S25A, S78T
notes: Fab; expressed in E. coli with CH1 (Plasmid A, His6 and Flag tags) and lambda CL (Plasmid E); also called H:KT TRV & S25A
B18: Fab VH5-51_IGHD5-18*01>3_IGHJ4*01 G100K/G104T G24T/S28R/G35V (H:KT TRV) & V3-4_IGLJ1*01 V91A (Fab, V domains shown)
VH: B1 VH
VL: B1 VL with S78T, V91A
notes: as for B3
B19: Fab VH5-51_IGHD5-18*01>3_IGHJ4*01 G100K/G104T G24T/S28R/G35V (H:KT TRV) & V3-4_IGLJ1*01 V91P (Fab, V domains shown)
VH: B1 VH
VL: B1 VL with S78T, V91P
notes: as for B3
B20: Fab VH5-51_IGHD5-18*01>3_IGHJ4*01 G100K/G104T G24T/S28R/G35V (H:KT TRV) & V3-4_IGLJ1*01 Y93A (Fab, V domains shown)
VH: B1 VH
VL: B1 VL with S78T, Y93A
notes: Fab; expressed in E. coli with CH1 (Plasmid A, His6 and Flag tags) and lambda CL (Plasmid E); also called H:KT TRV & Y93A
B21: Fab VH5-51_IGHD5-18*01>3_IGHJ4*01 G100K/G104T G24T/S28R/G35V (H:KT TRV) & V3-4_IGLJ1*01 G97A (Fab, V domains shown)
VH: B1 VH
VL: B1 VL with S78T, G97A
notes: Fab; expressed in E. coli with CH1 (Plasmid A, His6 and Flag tags) and lambda CL (Plasmid E); also called H:KT TRV & G97A
B22: Fab VH5-51_IGHD5-18*01>3_IGHJ4*01 G100K/G104T G24T/S28R/G35V (H:KT TRV) & V3-4_IGLJ1*01 M94A (Fab, V domains shown)
VH: B1 VH
VL: B1 VL with S78T, M94A
notes: Fab; expressed in E. coli with CH1 (Plasmid A, His6 and Flag tags) and lambda CL (Plasmid E); also called H:KT TRV & M94A

Assays:
Recombinant Human DLL4 [1] = molecular target: T1, Recombinant Human DLL4 (human, UniProt Q9NR61 27-524); test: ELISA, DLL4 coated on plate, Fab at 100 nM, absorbance at 450 nm minus blank
T1 construct: also called delta-like protein 4; rHuman DLL4

Recombinant Human DLL4 [2] = molecular target: T2, Recombinant Human DLL4 (human, UniProt Q9NR61 27-524); test: ELISA, DLL4 coated on the plate, Fab at 100 nM, signal minus blank
T2 construct: Bought recombinant human DLL4 (R&D Systems Cat#1506-D4/CF); also called delta-like protein 4; Delta-like 4

ELISA Signal-blank (100 nM Fab) (Recombinant Human DLL4 [1])	ELISA Signal-blank (100 nM Fab) (Recombinant Human DLL4 [2])	Binder
0.093		B1
0.394		B2
	0.197	B3
0.38		B4
0.347		B5
0.244		B6
0.344		B7
0.398		B8
0.3		B9
0.48		B10
0.478		B11
	0.127	B12
	0.08	B13
0.552		B14
	0.152	B15
	0.562	B16
0.483		B17
	0.529	B18
	0.078	B19
0.185		B20
0.129		B21
0.277		B22

Source: US20120316071A1 (published 2012)
